Assay results from a protein production outcome set (Wang et al. 2014).

Assay: label from the status in PepcDB records

Row | Sequence | protein production
1 | MMDTVKNRRTIRKYQQKDITPDLLNDLLETSFRASTMGGMQLYSVVVTRDAEKKEILSPAHFNQPMVKEAPVVLTFCADFRRFCKYCQERNAVPGYGNLMSFLNAAMDTLLVAQTFCTLAEEAGLGICYLGTTTYNPQMIIDALHLPELVFPITTVTVGYPAESPKQVDRLPIEGIIHEESYHDYTAEDINRLYAYKESLPENKLFIEENQKETLPQVFTDVRYTKKDNEFMSENLLKVLRRQGFMD | not failed
2 | MPLPRVSPVPLAGPGRRGEGGVSSAPLAGGPWAAGRRRLPGLLIIFRRVFTVGFWVGGVLAKKYPFLLGLDRVLELVTGFRGEAARRVLAGDEDLVGLGFRRAVAAVEGWLDYPFADTVEGEVASFYLGLAIAYRAGPAAVSRVVAGEYLRASRLLAGEPGEVASGILGGLGFPVERGGLSVPWVVDRRGVVMLPLGWRMGVDVFLRLSAADESSPELRLANQMLLSGSVYLSDARLRALASAASRLAIESRVSEAASLESEAVERYARHLAALAEGGLPFIPEALPQCIKNVFAKAVGGERLGWLELYLALVFLARIRAGPDAVEELLTPSLGERVARLLARVYSQAPPADHQLPPCEVLAASGVCRCRGSLLSEYRRSVRSLLGLPDRGAGRR | failed
3 | MSKKRIIALILAVVIVLGGIIMSSISAVVSSLFSESTTSDTNPFTEKVEKEGNSSKRIAHLTLNGEITEGTGGGLFGGEGYNHEAFLKQLDNVKKDDSIKGVLLTVNTPGGGTYPSDEIYEKIKEIKQKHKKIYVHMDSMAASGGYYISAPADKIYAGPQTMTGSIGVIMSSIDYSGLQKNLGIKQNVIKSGEHKDILSSSREMTSEERDILQSVLDDSFNRFVNIVKDGRDMPESKVRKLADGRIYSAQQAKSNGLIDEIGYEDQTVKALKKDINAKDAEVFEYSTDGGWFSSMYNVKSSISQFTNEIKDVKSIITNDTKTEPMYLYEGLEHHHHHH | failed
4 | MTDNTAVRRRYEKSFTERPGFTEDEIEEIREAFNLLDTDGTGTIDPKEIKCAMQSLGLDAKNPMIFRMIADLEKDGYSSIDFEEFMEVITSKLGNKDTREGIQRIFNLFDDDKTGSISLKNLKRVAKELGETLTDEELRDMIDRADSKGEGEISFEDFYTIMTKKSFL | failed
5 | MSLKYQLRFGGEGGQGVITAGEILAEAAIKEGRQAFKASTYTSQVRGGPTKVDIIIDDKEILFPYAVEGEVDFMLSTADKGYKGFRGGVKEGGIIVVEPNLVHPESEDYKKWQIFEIPIITIAKDEVGNVATQSVVALAIAAYMSKCIDLDVLKETMLHMVPAKTRDANAKAFDLGVKYATQAKPHEGHHHHHH | not failed
6 | MRRILGPVLAAHYLAAFTALGMPLFLPQVLAELAPSAAVGWSGVLYVLPTLCTALTASTWGRWADRNGRKRSLLRAQLGLALGFAIAGFAPSLTWLVIGLIVQGTCGGSLAAANAYLASQPQAGPLARALDWTQYSARLAMVSAPALLGLALALGPAQSLYRALALLPLIAFALTWRLPADQPAAREPAAGTPATSLKHAASSPASPRTVAATSWPALLLAQFLFCFAMVVTFPYFIPYALARGAGHDALAGLLYSLPHLVYLVVLPWWRRGDGEAWLVPGLALFAAACVWQALLHDALALAAARLLFGFGMLFGLRGLNRSLAHIASGHSAGRLFGRFDACGKWAGVFAGAAAGALAQASGPATPFLAAALAAAAAALTVLVRFPSRRTADVAAHDA | failed
7 | MSYSNILVAVAVTPESQQLLAKAVSIARPVKGHISLITLASDPEMYNQLAAPMLEDLRNVMQEETQSFLDKLIQDAGYPVDKTFIAYGELSEHILEVCRKHHFDLVICGNHNHSFFSRASCSAKRVITSSEVDVLLVPLTGD | failed
8 | GKTFPDVPADHWGIDSINYLVEKGAVKGNDKGMFEPGKELTRAEAATMMAQILNLPIDKDAKPSFADSQGQWYTPFIAAVEKAGVIKGTGNGFEPNGKIDRVSMASLLVEAYKLDTKVNGTPATKFKDLETLNWGKEKANILVELGISVGTGDQWEPKKTVTKAEAAQFIAKTDKQFGTE | not failed
9 | MTKTLRTPEHVYLCQRLRQARLDAGLTQADLAERLDKPQSFVAKVETRERRLDVIEFAKWMAACEGLDVVSEIVATIAEGRAQA | not failed
10 | MDTVDLRHLDENLHHARTQFEVWARGRLSNLEEVQRTWQETTARVSRETETLVQRRTQFEAAAARLQERLEAEREELDALERGIAQLEARAAALPVRQQELEQEIAERRQEFERRRALLNACEEARRTRLLHLQKALVWYRDRLGLRFQRVGAASATEAGRVDGKVRVIFRHIDSRAPDREFAFTVYVDEDADLFRVEDCVPDIDVMKPTAGAANVRLAQMVETLNRTNDFGAFVAQMRRRFKAWVQMESTDQLAGRQA | failed
11 | MAVTRRLLMAVVGLFSLLVYFTAAYVGYLLLLPVWDSRPSPLMAALFVLGTAIALGVVNYWAATAQLKRSLNAVELPRARAPEAYHRLDALVDQMNVETPTLLLAELPVPNAFAIGGGTGTIVVDRRLFRLLSAAEFEGLLAHELAHLETRDALVQTVAYSFVQTLVGLIGLALFPIVVLTGGIARSLALLRGDPSSWSRSWLGRAQRYSLQVVAGLGFAVTLLLLGYSRRRELAADDRAVEITGNPVGLARALAKIEQASTPDPGLLRQVYVHSEADNELSRLLSTHPPIDERMQRLQDRAQYGNFTKSSERPSSRR | failed
12 | MSATLKDYLNKRVVIIKVDGECLIASLNGFDKNTNLFITNVFNRISKEFICKAQLLRGSEIALVGLIDAENDDSLAPIDEKKVPMLKDTKNKIENEHVIWEKVYESKTK | failed
13 | MSIEATLLARCESKCELCSSESPLTAYAVPPHGNVTVDTAIMVCDKCHSEIEEPKDINHWRCLNESMWSQVPAVQVTAWRQLTRLNSESWAQDALDMMYMEEEQKNWAMTGMSADDKTVDCNGTELKKGDDVTVIKDLPVKGTNQVIKQGTVIRGISLGDDPKLISGKANGGQSMYVIAEYCRKKLEHHHHHH | failed
14 | DTVLIVNKKAEIIWINNNITNLLGYLPDELLGKSIECLVPSRTREKHVNLRNSFINKPNKRSMNQGSGLWAVHKKNHEIPVCIDLNHYEESGEKFTVCSIRL | failed
15 | MEKYFGNAYRGDPGVPHADADRFVNIWIGSAAFSVLTWVNPYMWQLSNQFKYFSLSLSLELSNSNLGTFGFSCLISELGFLFMCFCSSLNCSGENYVLILLV | failed
16 | MIYRILIVISIFMISFSGFGQTDYFKLGKEYYNNGEYEKAAATYSEVIKKEENLPKVYETYLSTLYKLKNYTEAEKIIKKMVKVGSPENYTYRIDYALFYKQQNLTDKAEKEFSAFVSDIQKNSTAVDISGAYLQKLGEYTWAKQLYLQARKNFDRYAYCFELSSIYNRLGQTENMFDELLNYLSVNPASLEEVQNTFQNELDTDEKFALFETKVYDRINKDPNDIVYNQLLLWLNLQRKNFTKAFIQAKAIDKRNRQTGTTVLEVGNIALENKDYDAAGACFQYVSDNFKESFNYSIARRLLIQTREEQIKNTFPVDKQKIVGLISDYNQLLKENGRTAYTLESLRNMALLNAFYLDKRDTAVVILKSLIENPYTDNRLRGKAKIDLGDIYLLTGEPWESTLLYSQVEKDFKEDQLGHEAKLRNAELYYYKGEFVLAQEQLDVLKLATTREISNDAIQLSVFITENSGLDSTTDALKDYSAIQLLLFQRKYDEALQAANALLKQYPHHELTDDVYWLQATILRQTGKPTEALEMLKKISTGYADDLLGDDALFTSAQIFDYDLKNTEKAMQLYQDFLIQYTNSVYVTEARKRFRILRGDKI | failed
17 | MSRVQMDTEEVREFVGHLERFKELLREEVNSLSNHFHNLESWRDARRDKFSEVLDNLKSTFNEFDEAAQEQIAWLKERIRVLEEDY | not failed
18 | MPFTVTIEVSKQFETSTLPEKVFALLSDVPRSASYFPDVEKLEPLGSNAFRWIMEKNAIGGHTLKQTIYACTYRSDRVTMSVAWVPVEGEGNARVEGNWQIEFAFIQKIDRYISNLKETFAK | failed
19 | MTTPAPVPRITVLLPVYNGEQYLREALDSLLTQTYRNFSLLAVDDGSTDSSLEILRSIKDPRLSVKVNPRNRGLINTLNESLDLIQSEYVARMDADDIATPYRLEEQLAFMDAHPDVGLCGGYYERFTDTESIVVRPPTTHEDISYALIFDNVMAHNTVMFRRSVLERYRLRYDPAFAYAEDYELWVRFARYSRLANLPRVLVRYRFHPANTSSRFRHEQQIAAAKIRHIHRTNLGLEPRPGDAALHRQLFDMRFEGDLPELTAAGIWLSKLYRVGVRRCRQNPVSTFLEFNKLWYSACGRLADHGLKVFAQFLRQPFGFLGNPAYTLKLAYRCWRRIRIALEHHHHHH | failed
20 | DILVFTPRKSDAGISVILYPGAFVDALSYAPLANKLASSGYKTYIAEMPLNLAVFGKNRAADIIDEAPDEKFVIGGHSLGGVMSSRFAHENESEIEGVFFLASYPDKKGSLKNASFPALSITGTKDDVLNKDAYDKNKKYLPKDTTFVSIEGGNHAQFGSYGAQHGDGKATISEAEQTDQVSNALIAWLNTSVKNQE | not failed
21 | MLKANVFCAGPVEALILDWAGTTIDFGSLAPVYAFMELFKQEGIEVTQAEAREPMGTEKSEHIRRMLGNSRIANAWLSIKGQASNEEDIKRLYDLFAPIQTRIVAQRSQLIPGWKEVFDKLIAQGIKVGGNTGYGPGMMAPALIAAKEQGYTPASTVFATDVVRGRPFPDMALKVALELEVGHVNGCIKVDDTLPGIEEGLRAGMWTVGVSCSGNEVGLDREDWQALSSDEQQSYRQHAEQRLFNAGAHYVIDSVADLETVITDVNRRLARGEKP | not failed
22 | MLHIDDAMIEDAVTPQAAQEVLHAAFLDFGRGSAAMQRRVRTEAGGVKLSTLGAVIPGQGVAGAKVYTTIKGQFQFVILLFSAADGRPLATCDAGTLTRKRTAACTVLAAGALARLRSSVLGLFGAGTQGVEHAAQLSARFALEAILVHDPHASPEVVERIGRRCGVPARMAAPADIAAQADIVVTATRSATPLFAGQALRAGAFVGAIGSSLPHTRELDDEVLRRARAVVVEWREQTLSEAGDLVLAAPDTGLDAKVVELADVLAGRATARQADEDIVIYKSVGVGLEDVALAGYAYRRLAAQRGWPAP | failed
23 | MITKDVKEQLIQVSGPENFDDSNAGRLVYSYDATPQYQSMPDAVIAPRNTDEISRILTICSEHRVPIVPRGSGTNLCGGTCPTEGGLVLLFKHMNQILEIDEENLTATVQPGVITLDMIRAVESKGLFYPPDPSSMKISTIGGNINENSGGLRGLKYGVTRDYVIGLEVVLANGDIIRTGGKLAKDVAGYDLTRLFVGSEGTLGIVTEAIVKLVPKPETKKTLLALYENIDAAAQTVSDIIAAKIIPATLEFLDQPTLLVIEDYAKIGLPTSAKAVLLIEQDGPFETVERDMEKIEAICKKGDAVSVQTAQTEEEAFALTEARRSALSALARLKPTTILEDATVPRSEIANMVKAINDIAAKYDISICTFGHAGDGNLHPTCTTDIRNKDEMERVEQAFAEIFEKAIELGGTITGEHGVGEMKAPYLEMKLKKEGIDAMKALKAAFDPRNILNPGKMFAKDARKRVVAER | failed
24 | MADERYNRKNPAVKRILQEVKEMQANPSDDFMSLPLEENIFEWQFAIRGPGDTEFEGGIYHGRIQLPADYPFKPPSFMLLTPNGRFETNTKICLSISNYHPEHWQPSWSVRTALVALIAFMPTSPNGALGSVDYPKDERRTLAIKSRETPPKYGSPERQKIIDEIHQYILSKATVVPKPLPLECSQAPSIVSEAHSQVEPQEAITVVEERSIATTDTIVDDQIIEETAEAVNTAASVVPAAAPLPAVEVVVKASVSGEQRMARRAAQKPVDDRLFTWAAVGLTIAIMVLLLKKFIKSNGYSTGFMDDQS | failed
25 | MATLDERARPWARKSRWNGYAYEFLLFGLKQAWACLFGGLMLALLVGTKLFWPEAAPIARYDFLVVAAIAIQASLLALKLERWDEALVIFMFHVVGTIMELFKTAHGSWIYPEDSVLRIGGVPLFTGFMYACVGSYIARIWRLFDITFIRYPPFWTTHILAVLIYANFFTHHYMIDIRVGLFALSVLLFGRTWFVFTPDQTARRMPMLMGAVLVSLFIWFAENLGTFAGAWIYPNQADGWQMVPFEKMGAWYLLMLISFVLVTLVHPPVHACVARIRQGIWRAA | failed
